Here are results for 4 molecules from PMC3615136 (Molecular cell, 2013).

Substitutions are numbered along the chain they refer to. Numbers in names are those of the source.

Series [1] addresses T1, wild-type FlaI, Sulfolobus acidocaldarius (Sulfolobus acidocaldarius), Q4J9L0.
T1 chain: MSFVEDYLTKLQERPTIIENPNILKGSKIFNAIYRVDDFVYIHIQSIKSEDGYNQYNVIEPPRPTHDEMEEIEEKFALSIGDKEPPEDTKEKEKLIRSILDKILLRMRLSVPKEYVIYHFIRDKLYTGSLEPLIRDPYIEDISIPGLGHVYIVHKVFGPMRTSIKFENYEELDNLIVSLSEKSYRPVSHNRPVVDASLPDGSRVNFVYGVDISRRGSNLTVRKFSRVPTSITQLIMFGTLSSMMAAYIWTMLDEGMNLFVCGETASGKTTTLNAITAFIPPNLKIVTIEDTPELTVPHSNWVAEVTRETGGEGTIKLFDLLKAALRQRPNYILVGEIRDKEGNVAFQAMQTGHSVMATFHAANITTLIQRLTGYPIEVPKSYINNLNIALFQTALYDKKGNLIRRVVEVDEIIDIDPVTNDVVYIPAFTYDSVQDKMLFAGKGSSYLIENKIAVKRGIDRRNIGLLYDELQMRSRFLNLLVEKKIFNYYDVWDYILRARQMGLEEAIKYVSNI
In words: crystal structure. As to conditions: remark: other sources report otherwise.

The series “crystal structure” deals with the molecule itself. The series can be described thus: crystal structure.
The series “SEC” deals with the molecule itself. In words: SEC. Background: In gel filtration, larger molecules generally elute earlier.

B1: wild-type FlaI, Sulfolobus acidocaldarius, Q4J9L0 1-513 (enzyme)
chain: T1 chain
The term stoichiometry N denotes a count of units in the complex or per binding partner. In series [1], B1 showed a stoichiometry N of 6.

B2: FlaI Walker B mutant (FlaI^E336A), full-length, Sulfolobus acidocaldarius (enzyme, UniProt Q4J9L0 1-513, looked up)
chain: T1 chain with E336A
For B2, the “stoichiometry N” value in “crystal structure” turned out to be 6.

B3: FlaI^N190E/E336A interface mutant in the Walker B background (enzyme, Sulfolobus acidocaldarius, UniProt Q4J9L0 1-513, looked up)
chain: T1 chain with N190E, E336A
With B3, the binding result in the series “SEC” is given as “binds”.

B4: FlaI^R307K/E336A interface mutant in the Walker B background (enzyme, Sulfolobus acidocaldarius, UniProt Q4J9L0 1-513, looked up)
chain: T1 chain with R307K, E336A
Consider B4, for which the binding result in the series “SEC” is “binds”.
